The results in this text go back to patent US20240117074A1 (published 2024).

Changes are numbered by the printed parent chain.

Experiment [1] has as its target CD40 expressed on cells (CD40 reporter cells, HEK Blue CD40L cells, primary B cells, tumor APCs) (human, UniProt P25942 21-277). As to the kind of experiment: cell-based or functional assay.
Experiment [2] concerns the target T1, human CEACAM5, recombinant soluble (hCEACAM-5, R&D Systems #4128-CM-050) (human, UniProt P06731 35-685).
T1 construct: Bought protein; also called Human CEACAM5-His; monomeric human CEACAM5-His
T1 sequence (looked up): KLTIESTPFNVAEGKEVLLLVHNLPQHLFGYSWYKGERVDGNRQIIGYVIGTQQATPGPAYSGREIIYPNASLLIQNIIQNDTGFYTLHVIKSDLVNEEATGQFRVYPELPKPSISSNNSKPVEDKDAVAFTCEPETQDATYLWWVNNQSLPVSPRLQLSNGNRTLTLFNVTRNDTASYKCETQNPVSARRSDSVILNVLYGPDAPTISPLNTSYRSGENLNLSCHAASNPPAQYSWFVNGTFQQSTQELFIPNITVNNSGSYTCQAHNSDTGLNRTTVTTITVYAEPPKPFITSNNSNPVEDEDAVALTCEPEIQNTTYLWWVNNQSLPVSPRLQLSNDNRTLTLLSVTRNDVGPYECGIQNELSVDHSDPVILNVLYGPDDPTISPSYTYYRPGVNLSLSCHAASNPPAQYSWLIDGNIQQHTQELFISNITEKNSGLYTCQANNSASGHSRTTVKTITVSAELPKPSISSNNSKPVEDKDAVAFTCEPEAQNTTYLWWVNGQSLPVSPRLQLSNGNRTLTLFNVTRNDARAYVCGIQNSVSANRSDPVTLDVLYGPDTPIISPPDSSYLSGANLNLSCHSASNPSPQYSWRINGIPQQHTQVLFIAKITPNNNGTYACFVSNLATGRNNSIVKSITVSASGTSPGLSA
As to the kind of experiment: Octet BLI, captured bsAb, soluble antigen. Background: In BLI a coated tip is dipped into the sample, and binding shifts an interference pattern.

Experiment [3] deals with T1, human CEACAM5, recombinant soluble …. The experiment in a line: Octet BLI, captured bsAb, monomeric CEACAM5 in solution.
Experiment [4] has as its target T2, monomeric Cynomolgus CEACAM5-His (Sino Biological #90891-C08H) (cynomolgus).
T2 chain: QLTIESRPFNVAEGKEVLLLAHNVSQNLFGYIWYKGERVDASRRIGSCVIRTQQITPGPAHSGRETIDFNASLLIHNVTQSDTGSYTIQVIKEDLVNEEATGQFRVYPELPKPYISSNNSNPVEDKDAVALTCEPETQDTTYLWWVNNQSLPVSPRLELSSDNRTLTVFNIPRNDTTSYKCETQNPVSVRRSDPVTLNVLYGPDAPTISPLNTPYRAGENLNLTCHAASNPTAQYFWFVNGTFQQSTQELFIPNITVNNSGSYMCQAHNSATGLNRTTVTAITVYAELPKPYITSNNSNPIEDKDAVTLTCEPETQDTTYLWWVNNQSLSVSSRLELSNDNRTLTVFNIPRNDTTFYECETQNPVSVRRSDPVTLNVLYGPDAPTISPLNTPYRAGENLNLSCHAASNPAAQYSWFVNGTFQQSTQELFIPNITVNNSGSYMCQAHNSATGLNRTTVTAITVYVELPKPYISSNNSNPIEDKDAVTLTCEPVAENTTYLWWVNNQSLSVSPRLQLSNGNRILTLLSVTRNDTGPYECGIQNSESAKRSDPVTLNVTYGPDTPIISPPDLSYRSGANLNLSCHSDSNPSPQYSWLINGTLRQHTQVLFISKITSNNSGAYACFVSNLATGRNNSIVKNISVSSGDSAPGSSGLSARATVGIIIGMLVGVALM
The experiment in a line: Octet BLI, captured bsAb, soluble antigen.

For experiment [5], the target named is T3, biotinylated human CD40-mouse Fc (Ancell #504-030) (human, UniProt P25942 21-193, biotinylated).
T3 construct: Bought fusion protein; also called hCD40-muIg; CD40mFc-biotin; not shown: mouse Ig Fc of the bought fusion protein
As to the kind of experiment: Octet BLI, captured CD40mFc-biotin, bsAb in solution.

For experiment [6], the target named is T1, human CEACAM5, recombinant soluble …. As to the kind of experiment: dual target ELISA: CEACAM5 coated, biotinylated hCD40-muIg detection. How it is done: ELISA plates were coated with human EpCAM, bsAb was added followed by detection using goat anti human-kappa light chain-HRP.
96-well plates were coated with 0.5 μg/mL antigen, hCEACAM-1 (2244-CM-050, R&D Systems), hCEACAM-5 (4128-CM-050, R&D Systems), hCEACAM-6 (3934-CM-050, R&D Systems) or CEACAM-8 (9639-CM-050, R&D Systems) in PBS over night at 4° C. After washing in PBS/0.05% Tween 20 (PBST), the plates were blocked with PBST, 2% BSA for at least 30 minutes at room temperature before a second round of washing. RUBY bsAbs, diluted in PBST, 0.5% BSA, were then added and allowed to bind for at least 1 hour at room temperature. […] Finally, a final round of washing was performed and bound complexes detected using SuperSignal Pico Luminescent as substrate and luminescence signals were measured using Fluostar Optima.
In general terms: An ELISA detects its analyte on a solid surface through an enzyme-linked reagent.

CD40 expressed on cells (CD40 reporter cells, HEK Blue CD40L cells, primary B cells, tumor APCs), sequence (P25942 21-277): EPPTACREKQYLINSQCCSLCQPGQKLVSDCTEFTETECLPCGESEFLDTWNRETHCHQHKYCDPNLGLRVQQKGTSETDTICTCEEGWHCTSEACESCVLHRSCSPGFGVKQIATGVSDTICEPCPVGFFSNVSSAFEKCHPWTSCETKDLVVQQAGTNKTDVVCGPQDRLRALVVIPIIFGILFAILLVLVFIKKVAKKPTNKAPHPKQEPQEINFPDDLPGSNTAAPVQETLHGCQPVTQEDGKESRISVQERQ
T3 sequence (P25942 21-193): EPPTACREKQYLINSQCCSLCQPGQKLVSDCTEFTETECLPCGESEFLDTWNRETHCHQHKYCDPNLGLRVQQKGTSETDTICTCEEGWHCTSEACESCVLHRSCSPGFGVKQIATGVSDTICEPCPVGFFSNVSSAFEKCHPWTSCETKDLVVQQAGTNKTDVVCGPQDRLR

B1: AC_05339 (bispecific antibody)
chain 1: not shown
chain 2: DIQMTQSPSSLSASVGDRVTITCRASQSISSYLNWYQEKPGKAPKLLIYAASSLQSGVPSRFSGSGSGTDFTLTISSLQPEDFATYYCQQAGNPHTFGQGTKLEIKRTVAAPSVFIFPPSDEQLKSGTASVVCYLNNFYPREAKVQWKVDNALQSGNSQESVTEQDSKDSTYSLWSTLTLSKADYEKHKVYACEVTHQGLSSPVTKSFNRGEC
chain 3: EVQLLESGGGLVQPGGSLRLSCAASGFTFSTYGMHWVREAPGKGLEWLSYISGGSSYIFYADSVKGRFTISRDNSKNTLYLQMNSLRAEDTAVYYCARILRGGSGMDLWGQGTLVTVSSASTKGPSVFPLAPSSKSTSGGTAALGCLVKDYFPEPVTVSWNSGALTSGVHTFPAVLQSSGLYSLTSVVEVPSSSLGTQTYICNVNHKPSNTKVDKKVEPKSC
Broadly, the Kd is a measure of binding affinity in units of concentration. One may read the koff as the first-order rate constant of dissociation. One may read the kon as the rate constant with which the complex forms. Turning to B1, in experiment [1], the “EC50 of HEK Blue CD40L reporter activation (SEAP), CHO-CEACAM5 crosslinking, 0 Raji sink cells/well” value is 0.03 nM; the “EC50 of HEK Blue CD40L reporter activation (SEAP), CHO-CEACAM5 crosslinking, 10 000 Raji sink cells/well” value is 0.05 nM; the “EC50 of HEK Blue CD40L reporter activation (SEAP), CHO-CEACAM5 crosslinking, 30 000 Raji sink cells/well” value was found to be 0.08 nM; the “EC50 of HEK Blue CD40L reporter activation (SEAP), CHO-CEACAM5 crosslinking, 90 000 Raji sink cells/well” value was 0.23 nM. For the same molecule, in experiment [2], the Kd was < 0.001 nM, the koff was < 1e-07 s⁻¹ and the kon stood at 520000 M⁻¹ s⁻¹. Also, in experiment [3], the Kd turned out to be 1.8 nM, the koff worked out at 0.00042 s⁻¹ and the kon is 240000 M⁻¹ s⁻¹.

B2: AC_05355 (bispecific antibody)
chain 1: not shown
chain 2: DIQMTQSPSSLSASVGDRVTITCRASENIFSYLAWYQEKPGKAPKLLIYNTRTLQSGVPSRFSGSGSGTDFTLTISSLQPEDFATYYCQHHYGTPFTFGQGTKLEIKRTVAAPSVFIFPPSDEQLKSGTASVVCYLNNFYPREAKVQWKVDNALQSGNSQESVTEQDSKDSTYSLWSTLTLSKADYEKHKVYACEVTHQGLSSPVTKSFNRGEC
chain 3: B1 chain 3
With B2, in experiment [4], the affinity, expressed as Kd, was 20 nM; the dissociation rate constant (koff) is 0.0038 s⁻¹; the kon came out at 190000 M⁻¹ s⁻¹. In experiment [2], the Kd is 1 nM, the koff worked out at 0.00053 s⁻¹ and the kon stood at 510000 M⁻¹ s⁻¹.

B3: AC_05293 (bispecific antibody)
chain 1: EVQLLESGGGLVQPGGSLRLSCAASGFTFSSYAMSWVRQAPGKGLEWVSGIGSYGGGTYYADSVKGRFTISRDNSKNTLYLQMNSLRAEDTAVYYCARYVNFGMDYWGQGTLVTVSS
chain 2: DIQMTQSPSSLSASVGDRVTITCRASQSISSYLNWYQQKPGKAPKLLIYAASSLQSGVPSRFSGSGSGTDFTLTISSLQPEDFATYYCQQYGRNPPTFGQGTKLEIK
chain 3: EVQLLEQSGAELVRPGTSVKISCKASGYAFTNYWLGWVKQRPGHGLEWIGDIFPGSGNIHYNEKFKGKATLTADKSSSTAYMQLSSLTFEDSAVYFCARLRNWDEPMDYWGQGTTVTVSS
chain 4: ELVMTQSPSSLTVTAGEKVTMSCKSSQSLLNSGNQKNYLTWYQQKPGQPPKLLIYWASTRESGVPDRFTGSGSGTDFTLTISSVQAEDLAVYYCQNDYSYPLTFGAGTKLEIK
B3: in experiment [5], the Kd turned out to be 76 nM, the koff was 0.00062 s⁻¹ and the kon turned out to be 8300 M⁻¹ s⁻¹.

B4: AC_05331 (bispecific antibody)
chain 1: not shown
chain 2: B3 chain 2 with Y91T, G92Y, R93G, N94Y, P95L, P96H
chain 3: EVQLLESGGGLVQPGGSLRLSCAASGFTFSTYGMHWVRQAPGKGLEWLSYISGGSSYIFYADSVRGRFTISRDNSENALYLQMNSLRAEDTAVYYCARILRGGSGMDLWGQGTLVTVSS
chain 4: QSVLTQPPSASGTPGQRVTISCTGSSSNIGAGYNVYWYQQLPGTAPKLLIYGNINRPSGVPDRFSGSKSGTSASLAISGLRSEDEADYYCAAWDKSISGLVFGGGTKLTVLG
As for B4, in experiment [5], the Kd amounted to 0.23 nM, the koff is 8.1e-06 s⁻¹ and the kon is 36000 M⁻¹ s⁻¹.

B5: AC_05300 (bispecific antibody)
chain 1: B3 chain 3
chain 2: B3 chain 4
chain 3: B3 chain 1
chain 4: B3 chain 2
In experiment [5], B5 registered a dissociation constant (Kd) of 8.5 nM, a koff of 0.0046 s⁻¹ and an association rate constant (kon) of 540000 M⁻¹ s⁻¹.

B6: AC_05330 (bispecific antibody)
chain 1: B4 chain 3
chain 2: B4 chain 4
chain 3: not shown
chain 4: B3 chain 2 with Y91T, G92Y, R93G, N94Y, P95L, P96H
In experiment [5], B6 registered a Kd of 0.45 nM, a koff of 1.6e-05 s⁻¹ and a kon of 35000 M⁻¹ s⁻¹.

B7: Multi39 (bispecific antibody)
heavy 1: not shown
light: not shown
heavy 2: EVQLLESGGGLVQPGGSLRLSCAASGFTFYDHAMSWVREAPGKGLEWVSAISGSYGSTGYADSVKGRFTISRDNSKNTLYLQMNSLRAEDTAVYYCARWGGWAGDIDYWGQGTLVTVSSASTKGPSVFPLAPSSKSTSGGTAALGCLVKDYFPEPVTVSWNSGALTSGVHTFPAVLQSSGLYSLTSVVEVPSSSLGTQTYICNVNHKPSNTKVDKKVEPKSC
notes: copies: 2 + 2 + 2
Consider B7, for which the binding result in experiment [6] was “binds”.
